Experimental findings from patent publication US6734342B2, “Theobromine synthase polypeptide of coffee plant and the gene encoding said polypeptide” (Nara Institute of Science and Technology, priority 2000, dated 2004) are described below.

Data set [1] in a line: Enzymatic activity measurement and identification of the reaction product by HPLC. In kind it is biochemical. Particulars: 200 μM 7-methylxanthine, 50 μM S-adenosylmethionine, 200 ng GST fusion protein, 27° C., 2 hours; UV 254 nm (FIG. 6). Here is the method: Using high performance liquid chromatography (HPLC), enzymatic activity of the MXMT1 fusion protein was measured and reaction product obtained from the enzymatic reaction was identified. The reaction mixture of 100 μl, containing 100 mM Tris-HCl (pH 7.5), 200 μM of substrate (7-methylxanthine, paraxanthine, theobromine), 50 μM of S-adenosylmethionine, 200 μM of MgCl2, 200 ng of GST fusion protein, was incubated at 27° C. for 2 hours. After incubation, the mixture was extracted with 1 ml of chloroform, the chloroform layer was recovered, then chloroform was evaporated by a speed back concentrator. The residue was dissolved in 50 μl of 12% acetonitrile. Then the solution was fractionated by HPLC (Shodex Rspak DS-613 column) provided with UV detection system. As the solution for development, 12% acetonitrile was used and the signal was detected for absorbance of 254 nm.
The MXMT1 fusion protein was reacted with S-adenosylmethionine and 7-methylxanthine, which is the substrate and the reaction product was analyzed by HPLC. […] Furthermore, S-adenosylmethionine and 7-methylxanthine was reacted with MXMT1 fusion protein and then theobromine was added to the reaction mixture. The peak position of the reaction product detected in FIG. 6A coincided with the position of theobromine, which was analyzed as the standard compound. […]

A short description of data set [2]: Measurement of enzymatic (methyl transferase) activity of GST fusion proteins by thin layer chromatography. Particulars: for activity as theobromine synthase: polypeptides with higher than 80% homology to SEQ.ID. NO: 1; for activity as a methyl transferase: substrates xanthine, 7-methylxanthine, theobromine, paraxanthine, theophylline, 200 μM each. In kind it is biochemical. Here is the method:
The open reading frame regions of MTL1 (Clone #1), MTL2 (Clone #6), MTL3 (Clone #35) and MXMT1 (Clone #45) were amplified by PCR (polymerase chain reaction). Then, they were optionally cloned into pGEX 4T-2 vector (Pharmacia) and E. coli (JM109) cells were transformed with the resulting plasmids. The obtained E. coli cells were cultured in LB liquid medium containing ampicillin. When OD600 of the culture reached to 0.5, IPTG (isopropyl thio-β-D-galactoside) was added to it and the final concentration of IPTG was made to 1 mM, then the mixture was further cultured at 16° C. for 6 hours. E. coli was desrupted by a sonicator and the protein of the purpose was purified by glutathione Sepharose 4B as a GST (glutathione S-transferase) fusion protein. Concentration of the protein was measured by the Bradford method. Each of the GST fusion protein (500 ng) was separated by SDS-PAGE (sodium dodecyl sulfate polyacrylamide gel electro-phoresis), then it was stained by CBB (coumasie Brilliant Blue) to confirm purification.
Measurement of enzymatic activity was performed using thin layer chromatography (TLC), based on the method of Kato et al. (Plant Physiol., 1996, 98, 629-636). In concrete, the reaction mixture of 100 μl, containing 100 mM Tris-HCl (pH 7.5), 200 μM substrate (xanthine, 7-methylxanthine, theobromine, paraxanthine, theophylline), 4 μM ^14C-labeled S-adenosylmethionine, 200 μM MgCl2, 200 ng GST fusion protein, was incubated at 27° C. for 2 hours. After the reaction, the resulting mixture was extracted with 1 ml of chloroform, the chloroform layer was recovered, then chloroform was evaporated by speed back concentrator. The residue was dissolved in 5 μl of 50% methanol solution, then the solution was developed by TLC (solvent for development was water:acetic acid:n-butanol=2:1:4, v/v/v). After the development, signal of radio activity was detected by image analyzer (Fuji BAS 2000). The result of enzymatic activity, which was measured on the fusion proteins derived from MTL2, MTL3 and MXMT1 using xanthine (X), 7-methylxanthine (7-Mx), theobromine (Tb), paraxanthine (Px) and theophylline (Tp) as the substrate, was shown in FIG. 5.

B1: MXMT1: theobromine synthase polypeptide of Coffea arabica, amino acids 1 to 378 of SEQ ID NO: 1, expressed in E. coli as GST fusion (protein, listed as Caffea arabica)
chain: MELQEVLHMNEGEGDTSYAKNASYNLALAKVKPFLEQCIRELLRANLPNINKCIKVADLGCASGPNTLLTVRDIVQSIDKVGQEEKNELERPTIQIFLNDLFQNDFNSVFKLLPSFYRKLEKENGRKIGSCLISAMPGSFYGRLFPEESMHFLHSCYSVHWLSQVPSGLVIELGIGANKGSIYSSKGCRPPVQKAYLDQFTKDFTTFLRIHSKELFSRGRMLLTCICKVDEFDEPNPLDLLDMAINDLIVEGLLEEEKLDSFNIPFFTPSAEEVKCIVEEEGSCEILYLETFKAHYDAAFSIDDDYPVRSHEQIKAEYVASLIRSVYEPILASHFGEAIMPDLFHRLAKHAAKVLHMGKGCYNNLIISLAKKPEKSDV
For B1, in data set [1], the “reaction product identified by HPLC” value is given as “theobromine was formed”. The “activity to synthesize theobromine, using 7-methylxanthine as the substrate” value in data set [2] (200 μM 7-methylxanthine, 4 μM 14C-S-adenosylmethionine, 200 ng GST fusion protein, 27° C., 2 hours, TLC (FIG. 5)) is recorded as “potent activity to synthesize theobromine”. In data set [2] (200 μM paraxanthine, relative to the activity with 7-methylxanthine, TLC (FIG. 5)), the “relative activity to synthesize caffeine, using paraxanthine as the substrate” value is 15%.

B2: SEQ.ID. NO: 3: Coffea arabica polypeptide homologous to MXMT1, encoded by clone #1 cDNA (SEQ ID NO: 4) (protein, listed as Caffea arabica)
chain: MELQEVLHMNGGEGEASYAKNSSFNQLVLAKVKPVLEQCVRELLRANLPNINKCIKVADLGCASGPNTLLTVWDTVQSIDKVKQEMKNELERPTIQVFLTDLFQNDFNSVFMLLPSFYRKLEKENGRKIGSCLIAAMPGSFHGRLFPEESMHFLHSSYSLQFLSQVPSGLVTELGITANKRSIYSSKASPPPVQKAYLDQFTKDFTTFLRMRSEELLSRGRMLLTCICKGDECDGPNTMDLLEMAINDLVAEGRLGEEKLDSFNVPIYTASVEEVKCMVEEEGSFEILYLQTFKLRYDAGFSIDDDCQVRSHSPVYSDEHARAAHVASLIRSVYEPILASHFGEAIIPDIFHRFATNAAKVIRLGKGFYNNLIISLAKKPEKSDI
Regarding B2, the “activity as theobromine synthase” value in data set [2] is reported as “did not exhibit activity as theobromine synthase”.

B3: MTL2: Coffea arabica polypeptide homologous to MXMT1, encoded by clone #6 cDNA (SEQ ID NO: 6) (protein, listed as Caffea arabica)
chain: MELQEVLHMNGGEGDASYAKNSSFNQLVLAKVKPVLEQCVGELLRANLPNINKCIKVADLGCASGPNTLLTVRDIVQSIDDVRQEMKNELERPTIQVFLTDLFQNDFNSVFMLLPSFYRKLEKENGRKIGSCLIAAMPGSFHGRLFPEESMHFLHSSYSLQFLSQVPSGLVTELGITANKRSIYSSKASPPPVQKAYLDQFTKDFTTFLRIRSEELLSRGRMLLTCICKGDEFDGPNTMDLLEMAINDLVVEGHLEEEKLDSFNVPIYAASVEELKCIVEEEGSFEILYLETFKLRYDAGFSIDDDCQVRSHSPEYSDEHARAAHVASLLRSVYEPILANHFGEAIIPDIFHRFATNAAKVIRLGKGFYNNLIISLAKKPEKSDI
For B3, the “activity as theobromine synthase” value in data set [2] is listed as “did not exhibit activity as theobromine synthase”. The “activity as a methyl transferase” value in data set [2] (TLC (FIG. 5)) is recorded as “did not exhibit activity as a methyl transferase”.

B4: MTL3: Coffea arabica polypeptide homologous to MXMT1, encoded by clone #35 cDNA (SEQ ID NO: 8) (protein, listed as Caffea arabica)
chain: MELQEVLRMNGGEGDTSYAKNSAYNQLVLAKVKPVLEQCVRELLRANLPNINKCIKVADLGCASGPNTLLTVRDIVQSIDKVGQEKKNELERPTIQIFLNDLFPNDFNSVFKLLPSFYRKLEKENGRKIGSCLIGAMPGSFYSRLFPEESMHFLHSCYCLQWLSQVPSGLVTELGISTNKGSIYSSKASRLPVQKAYLDQFTKDFTTFLRIHSEELFSHGRMLLTCICKGVELDARNAIDLLEMAINDLVVEGHLEEEKLDSFNLPVYIPSAEEVKCIVEEEGSFEILYLETFKVLYDAGFSIDDEHIKAEYVASSVRAVYEPILASHFGEAIIPDIFHRFAKHAAKVLPLGKGFYNNLIISLAKKPEKSDV
As to B4, in data set [2], the “activity as theobromine synthase” value is “did not exhibit activity as theobromine synthase”. Further, in data set [2] (TLC (FIG. 5)), the “activity as a methyl transferase” value is “did not exhibit activity as a methyl transferase”.
